Laboratory results published in patent US11833164B2, “Methods of treating Fabry disease in patients having a mutation in the GLA gene” (Amicus Therapeutics, Inc., priority 2019, dated 2023).

Tested on: mutant form of α-Gal A expressed in HEK-293 cells
Experiment: HEK assay (GLP HEK / Migalastat Amenability Assay): α-Gal A activity in lysates of transiently transfected HEK-293 cells incubated with or without 10 μM migalastat
Format: cell-based, human
Details: for Absolute increase (% WT): 10 μM migalastat versus baseline; for Relative increase: 10 μM migalastat α-Gal A activity relative to baseline; for 10 μM migalastat α-Gal A activity (% WT): 5 days; for 10 μM migalastat α-Gal A activity (% WT) / Baseline α-Gal A activity (% WT): percentage of baseline wild-type α-Gal A activity; for 10 μM migalastat α-Gal A activity (% WT) / Baseline α-Gal A activity (% WT) / Baseline α-Gal A activity / 10 μM migalastat α-Gal A activity: mean ± SEM; for Baseline α-Gal A activity (% WT): absence of migalastat; for Baseline α-Gal A activity / 10 μM migalastat α-Gal A activity: lysates of HEK-293 cells transfected with the mutant form; for Baseline α-Gal A activity: incubated 5 days in the absence of migalastat; for 10 μM migalastat α-Gal A activity: incubated 5 days with 10 μM migalastat
Summary of the method: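 HEK-293 cells transiently transfected with mutant α-Gal A and incubated with or without 10 μM migalastat; lysate activity given as nmol free 4-MU released per mg protein per hour. Values are mean±SEM.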

| Molecule | Absolute increase (% WT) | Relative increase | 10 μM migalastat α-Gal A activity (% WT) | Baseline α-Gal A activity (% WT) | Baseline α-Gal A activity | 10 μM migalastat α-Gal A activity |
| --- | --- | --- | --- | --- | --- | --- |
| A135E (protein) MQLRNPELHLGCALALRFLALVSWDIPGARALDNGLARTPTMGWLHWERFMCNLDCQEEPDSCISEKLFMEMAELMVSEGWKDAGYEYLCIDDCWMAPQRDSEGRLQADPQRFPHGIRQLANYVHSKGLKLGIYEDVGNKTCAGFPGSFGYYDIDAQTFADWGVDLLKFDGCYCDSLENLADGYKHMSLALNRTGRSIVYSCEWPLYMWPFQKPNYTEIRQYCNHWRNFADIDDSWKSIKSILDWTSFNQERIVDVAGPGGWNDPDMLVIGNFGLSWNQQVTQMALWAIMAAPLFMSNDLRHISPQAKALLQDKDVIAINQDPLGKQGYQLRQGDNFEVWERPLSGLAWAVAMINRQEIGGPRSYTIAVASLGKGVACNPACFITQLLPVKRKLGFYEWTSRLRSHINPTGTVLLQLENTMQMSLKDLL | 7.4 % WT | 1.3 | 32.5 ± 1.6 % WT | 25.1 ± 1.5 % WT | 10143 ± 752 nmol/mg/h | 12954 ± 678 nmol/mg/h |
| D136N (protein) MQLRNPELHLGCALALRFLALVSWDIPGARALDNGLARTPTMGWLHWERFMCNLDCQEEPDSCISEKLFMEMAELMVSEGWKDAGYEYLCIDDCWMAPQRDSEGRLQADPQRFPHGIRQLANYVHSKGLKLGIYANVGNKTCAGFPGSFGYYDIDAQTFADWGVDLLKFDGCYCDSLENLADGYKHMSLALNRTGRSIVYSCEWPLYMWPFQKPNYTEIRQYCNHWRNFADIDDSWKSIKSILDWTSFNQERIVDVAGPGGWNDPDMLVIGNFGLSWNQQVTQMALWAIMAAPLFMSNDLRHISPQAKALLQDKDVIAINQDPLGKQGYQLRQGDNFEVWERPLSGLAWAVAMINRQEIGGPRSYTIAVASLGKGVACNPACFITQLLPVKRKLGFYEWTSRLRSHINPTGTVLLQLENTMQMSLKDLL | 11.2 % WT | 1.9 | 24.2 ± 0.9 % WT | 13 ± 0.8 % WT | 5079 ± 248 nmol/mg/h | 9827 ± 630 nmol/mg/h |
| V137D (protein) MQLRNPELHLGCALALRFLALVSWDIPGARALDNGLARTPTMGWLHWERFMCNLDCQEEPDSCISEKLFMEMAELMVSEGWKDAGYEYLCIDDCWMAPQRDSEGRLQADPQRFPHGIRQLANYVHSKGLKLGIYADDGNKTCAGFPGSFGYYDIDAQTFADWGVDLLKFDGCYCDSLENLADGYKHMSLALNRTGRSIVYSCEWPLYMWPFQKPNYTEIRQYCNHWRNFADIDDSWKSIKSILDWTSFNQERIVDVAGPGGWNDPDMLVIGNFGLSWNQQVTQMALWAIMAAPLFMSNDLRHISPQAKALLQDKDVIAINQDPLGKQGYQLRQGDNFEVWERPLSGLAWAVAMINRQEIGGPRSYTIAVASLGKGVACNPACFITQLLPVKRKLGFYEWTSRLRSHINPTGTVLLQLENTMQMSLKDLL | 11.6 % WT | 9.2 | 13 ± 1.6 % WT | 1.4 ± 0.2 % WT | 516 ± 80 nmol/mg/h | 4757 ± 618 nmol/mg/h |
| A135S (protein) MQLRNPELHLGCALALRFLALVSWDIPGARALDNGLARTPTMGWLHWERFMCNLDCQEEPDSCISEKLFMEMAELMVSEGWKDAGYEYLCIDDCWMAPQRDSEGRLQADPQRFPHGIRQLANYVHSKGLKLGIYSDVGNKTCAGFPGSFGYYDIDAQTFADWGVDLLKFDGCYCDSLENLADGYKHMSLALNRTGRSIVYSCEWPLYMWPFQKPNYTEIRQYCNHWRNFADIDDSWKSIKSILDWTSFNQERIVDVAGPGGWNDPDMLVIGNFGLSWNQQVTQMALWAIMAAPLFMSNDLRHISPQAKALLQDKDVIAINQDPLGKQGYQLRQGDNFEVWERPLSGLAWAVAMINRQEIGGPRSYTIAVASLGKGVACNPACFITQLLPVKRKLGFYEWTSRLRSHINPTGTVLLQLENTMQMSLKDLL | 12.2 % WT | 1.3 | 57.9 ± 3.2 % WT | 45.6 ± 2.9 % WT | 16777 ± 897 nmol/mg/h | 21383 ± 1125 nmol/mg/h |
| A135G (protein) MQLRNPELHLGCALALRFLALVSWDIPGARALDNGLARTPTMGWLHWERFMCNLDCQEEPDSCISEKLFMEMAELMVSEGWKDAGYEYLCIDDCWMAPQRDSEGRLQADPQRFPHGIRQLANYVHSKGLKLGIYGDVGNKTCAGFPGSFGYYDIDAQTFADWGVDLLKFDGCYCDSLENLADGYKHMSLALNRTGRSIVYSCEWPLYMWPFQKPNYTEIRQYCNHWRNFADIDDSWKSIKSILDWTSFNQERIVDVAGPGGWNDPDMLVIGNFGLSWNQQVTQMALWAIMAAPLFMSNDLRHISPQAKALLQDKDVIAINQDPLGKQGYQLRQGDNFEVWERPLSGLAWAVAMINRQEIGGPRSYTIAVASLGKGVACNPACFITQLLPVKRKLGFYEWTSRLRSHINPTGTVLLQLENTMQMSLKDLL | 16.1 % WT | 1.2 | 90 ± 3.6 % WT | 73.9 ± 3.8 % WT | 29959 ± 2193 nmol/mg/h | 36552 ± 2309 nmol/mg/h |
| D136A (protein) MQLRNPELHLGCALALRFLALVSWDIPGARALDNGLARTPTMGWLHWERFMCNLDCQEEPDSCISEKLFMEMAELMVSEGWKDAGYEYLCIDDCWMAPQRDSEGRLQADPQRFPHGIRQLANYVHSKGLKLGIYAAVGNKTCAGFPGSFGYYDIDAQTFADWGVDLLKFDGCYCDSLENLADGYKHMSLALNRTGRSIVYSCEWPLYMWPFQKPNYTEIRQYCNHWRNFADIDDSWKSIKSILDWTSFNQERIVDVAGPGGWNDPDMLVIGNFGLSWNQQVTQMALWAIMAAPLFMSNDLRHISPQAKALLQDKDVIAINQDPLGKQGYQLRQGDNFEVWERPLSGLAWAVAMINRQEIGGPRSYTIAVASLGKGVACNPACFITQLLPVKRKLGFYEWTSRLRSHINPTGTVLLQLENTMQMSLKDLL | 9.4 % WT | 1.5 | 29.8 ± 1 % WT | 20.4 ± 1.1 % WT | 8054 ± 482 nmol/mg/h | 12166 ± 927 nmol/mg/h |
| A135T (protein) MQLRNPELHLGCALALRFLALVSWDIPGARALDNGLARTPTMGWLHWERFMCNLDCQEEPDSCISEKLFMEMAELMVSEGWKDAGYEYLCIDDCWMAPQRDSEGRLQADPQRFPHGIRQLANYVHSKGLKLGIYTDVGNKTCAGFPGSFGYYDIDAQTFADWGVDLLKFDGCYCDSLENLADGYKHMSLALNRTGRSIVYSCEWPLYMWPFQKPNYTEIRQYCNHWRNFADIDDSWKSIKSILDWTSFNQERIVDVAGPGGWNDPDMLVIGNFGLSWNQQVTQMALWAIMAAPLFMSNDLRHISPQAKALLQDKDVIAINQDPLGKQGYQLRQGDNFEVWERPLSGLAWAVAMINRQEIGGPRSYTIAVASLGKGVACNPACFITQLLPVKRKLGFYEWTSRLRSHINPTGTVLLQLENTMQMSLKDLL | 23.2 % WT | 2.4 | 40.5 ± 3.4 % WT | 17.4 ± 1.3 % WT | 7906 ± 694 nmol/mg/h | 18890 ± 2092 nmol/mg/h |
| V137A (protein) MQLRNPELHLGCALALRFLALVSWDIPGARALDNGLARTPTMGWLHWERFMCNLDCQEEPDSCISEKLFMEMAELMVSEGWKDAGYEYLCIDDCWMAPQRDSEGRLQADPQRFPHGIRQLANYVHSKGLKLGIYADAGNKTCAGFPGSFGYYDIDAQTFADWGVDLLKFDGCYCDSLENLADGYKHMSLALNRTGRSIVYSCEWPLYMWPFQKPNYTEIRQYCNHWRNFADIDDSWKSIKSILDWTSFNQERIVDVAGPGGWNDPDMLVIGNFGLSWNQQVTQMALWAIMAAPLFMSNDLRHISPQAKALLQDKDVIAINQDPLGKQGYQLRQGDNFEVWERPLSGLAWAVAMINRQEIGGPRSYTIAVASLGKGVACNPACFITQLLPVKRKLGFYEWTSRLRSHINPTGTVLLQLENTMQMSLKDLL | 45.4 % WT | 1.8 | 106.6 ± 5.9 % WT | 61.1 ± 4.6 % WT | 22393 ± 1429 nmol/mg/h | 40016 ± 2785 nmol/mg/h |
| D136V (protein) MQLRNPELHLGCALALRFLALVSWDIPGARALDNGLARTPTMGWLHWERFMCNLDCQEEPDSCISEKLFMEMAELMVSEGWKDAGYEYLCIDDCWMAPQRDSEGRLQADPQRFPHGIRQLANYVHSKGLKLGIYAVVGNKTCAGFPGSFGYYDIDAQTFADWGVDLLKFDGCYCDSLENLADGYKHMSLALNRTGRSIVYSCEWPLYMWPFQKPNYTEIRQYCNHWRNFADIDDSWKSIKSILDWTSFNQERIVDVAGPGGWNDPDMLVIGNFGLSWNQQVTQMALWAIMAAPLFMSNDLRHISPQAKALLQDKDVIAINQDPLGKQGYQLRQGDNFEVWERPLSGLAWAVAMINRQEIGGPRSYTIAVASLGKGVACNPACFITQLLPVKRKLGFYEWTSRLRSHINPTGTVLLQLENTMQMSLKDLL | 74.2 % WT | 2.8 | 116.4 ± 5.5 % WT | 42.2 ± 1.7 % WT | 17164 ± 1203 nmol/mg/h | 47647 ± 3779 nmol/mg/h |
